Values of other authors in US20040253306A1, “Sustained release formulations for nifedipine dextromethorphan, and danazol” (priority 2001, published 2004).

Conditions: oral; free vs liposomes having ceramides

Substance: superoxide dismutase
- bioavailability: 14%
